Assay results as given in the supplement of paper PMC11316812.
± gives the standard deviation of the averaged measurements.

Assays:
MCF7 = assay: percentage of EdU-negative (G0-arrested) nuclei per well, 72 h; higher = more G0 arrest; conditions: reference: sequence is the full UniProt precursor, the tested protein was the secreted form or ectodomain
hTERT-HMEC = assay: as above; conditions: reference: sequence is the full UniProt precursor, the tested protein was the secreted form or ectodomain
[1] = protein concentration 0.0225 µM
[2] = protein concentration 0.026505 µM
[3] = protein concentration 0.26505 µM
[4] = protein concentration 0.0357143 µM
[5] = protein concentration 0.357143 µM
[6] = protein concentration 0.0095 µM
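Also: secreted proteins added to cultured cells, EdU pulse at the end, nuclei found by Hoechst imaging, EdU status from nuclear versus surrounding ring intensity ratio, PBS as neutral control.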

| Sequence | percentage of EdU-negative (MCF7; [1]) [%] | percentage of EdU-negative (MCF7; protein concentration 0.225 µM) [%] | percentage of EdU-negative (hTERT-HMEC; [1]) [%] | percentage of EdU-negative (hTERT-HMEC; protein concentration 0.225 µM) [%] | further results |
| --- | --- | --- | --- | --- | --- |
| MAPAQRPLLPLLLLLLPLPPPPFARAEDAARANSDRYAVYWNRSNPRFHAGAGDDGGGYTVEVSINDYLDIYCPHYGAPLPPAERMEHYVLYMVNGEGHASCDHRQRGFKRWECNRPAAPGGPLKFSEKFQLFTPFSLGFEFRPGHEYYYISATPPNAVDRPCLRLKVYVRPTNETLYEAPEPIFTSNNSCSSPGGCRLFLSTIPVLWTLLGS | 25.4 ± 3 | 27.3 ± 0.45 | 5.69 ± 1.4 | 9.78 ± 0.54 | – |
| MWCIVLFSLLAWVYAEPTMYGEILSPNYPQAYPSEVEKSWDIEVPEGYGIHLYFTHLDIELSENCAYDSVQIISGDTEEGRLCGQRSSNNPHSPIVEEFQVPYNKLQVIFKSDFSNEERFTGFAAYYVATDINECTDFVDVPCSHFCNNFIGGYFCSCPPEYFLHDDMKNCGVNCSGDVFTALIGEIASPNYPKPYPENSRCEYQIRLEKGFQVVVTLRREDFDVEAADSAGNCLDSLVFVAGDRQFGPYCGHGFPGPLNIETKSNALDIIFQTDLTGQKKGWKLRYHGDPMPCPKEDTPNSVWEPAKAKYVFRDVVQITCLDGFEVVEGRVGATSFYSTCQSNGKWSNSKLKCQPVDCGIPESIENGKVEDPESTLFGSVIRYTCEEPYYYMENGGGGEYHCAGNGSWVNEVLGPELPKCVPVCGVPREPFEEKQRIIGGSDADIKNFPWQVFFDNPWAGGALINEYWVLTAAHVVEGNREPTMYVGSTSVQTSRLAKSKMLTPEHVFIHPGWKLLEVPEGRTNFDNDIALVRLKDPVKMGPTVSPICLPGTSSDYNLMDGDLGLISGWGRTEKRDRAVRLKAARLPVAPLRKCKEVKVEKPTADAEAYVFTPNMICAGGEKGMDSCKGDSGGAFAVQDPNDKTKFYAAGLVSWGPQCGTYGLYTRVKNYVDWIMKTMQENSTPRED | 23.9 ± 1.2 | 24.2 ± 1.2 | 4.97 ± 0.22 | 6.85 ± 3.7 | – |
| MKSLVLLLCLAQLWGCHSAPHGPGLIYRQPNCDDPETEEAALVAIDYINQNLPWGYKHTLNQIDEVKVWPQQPSGELFEIEIDTLETTCHVLDPTPVARCSVRQLKEHAVEGDCDFQLLKLDGKFSVVYAKCDSSPDSAEDVRKVCQDCPLLAPLNDTRVVHAAKAALAAFNAQNNGSNFQLEEISRAQLVPLPPSTYVEFTVSGTDCVAKEATEAAKCNLLAEKQYGFCKATLSEKLGGAEVAVTCMVFQTQPVSSQPQPEGANEAVPTPVVDPDAPPSPPLGAPGLPPAGSPPDSHVLLAAPPGHQLHRAHYDLRHTFMGVVSLGSPSGEVSHPRKTRTVVQPSVGAAAGPVVPPCPGRIRHFKV | – | – | – | – | percentage of EdU-negative (MCF7; [2]): 26.1 ± 1.4%; percentage of EdU-negative (MCF7; [3]): 26.2 ± 2.4%; percentage of EdU-negative (hTERT-HMEC; [2]): 4.56 ± 0.2%; percentage of EdU-negative (hTERT-HMEC; [3]): 6.7 ± 0.16% |
| MARERPPGRGCGVLRRCLLGAVLLFGLRLCAELRRAGPGSPTRSAPPGPAWRPPGPHLPPAPGQPRGASRRQVTYVRSGRRAPPGGGGSGTPEPGCCAPRGRPRRKGPRWHIDLQPWAGSAQSLDEEAWRFLRYISTTQIACNHMNTDSLATDSSPTHKPWSVCLDDRFNLAHQIRNKQCRLYSLGLGSDDTHFEVSMANNGCEVHRFDPSVKSAHILESQHLWYHRLSIDWRDPHPAVAAQKPHSNTRKLGSILNEFGHHKIDVLKADLESAEWKVLENLILEDVLEQIGQLIFEIHLHWPGFEVSGSDSSVVRFWYSLLKELEQKDFRLFHSYKDLSKPQLFLKKDIFNASSCYTLSWVNTRWK [Q5JXM2] | – | – | – | – | percentage of EdU-negative (MCF7; protein concentration 0.017 µM): 26.3 ± 1.3%; percentage of EdU-negative (MCF7; protein concentration 0.17 µM): 28.6 ± 1.7%; percentage of EdU-negative (hTERT-HMEC; protein concentration 0.017 µM): 4.87 ± 0.35%; percentage of EdU-negative (hTERT-HMEC; protein concentration 0.17 µM): 10.9 ± 1.9% |
| MDGAMGPRGLLLCMYLVSLLILQAMPALGSATGRSKSSEKRQAVDTAVDGVFIRSLKVNCKVTSRFAHYVVTSQVVNTANEAREVAFDLEIPKTAFISDFAVTADGNAFIGDIKDKVTAWKQYRKAAISGENAGLVRASGRTMEQFTIHLTVNPQSKVTFQLTYEEVLKRNHMQYEIVIKVKPKQLVHHFEIDVDIFEPQGISKLDAQASFLPKELAAQTIKKSFSGKKGHVLFRPTVSQQQSCPTCSTSLLNGHFKVTYDVSRDKICDLLVANNHFAHFFAPQNLTNMNKNVVFVIDISGSMRGQKVKQTKEALLKILGDMQPGDYFDLVLFGTRVQSWKGSLVQASEANLQAAQDFVRGFSLDEATNLNGGLLRGIEILNQVQESLPELSNHASILIMLTDGDPTEGVTDRSQILKNVRNAIRGRFPLYNLGFGHNVDFNFLEVMSMENNGRAQRIYEDHDATQQLQGFYSQVAKPLLVDVDLQYPQDAVLALTQNHHKQYYEGSEIVVAGRIADNKQSSFKADVQAHGEGQEFSITCLVDEEEMKKLLRERGHMLENHVERLWAYLTIQELLAKRMKVDREERANLSSQALQMSLDYGFVTPLTSMSIRGMADQDGLKPTIDKPSEDSPPLEMLGPRRTFVLSALQPSPTHSSSNTQRLPDRVTGVDTDPHFIIHVPQKEDTLCFNINEEPGVILSLVQDPNTGFSVNGQLIGNKARSPGQHDGTYFGRLGIANPATDFQLEVTPQNITLNPGFGGPVFSWRDQAVLRQDGVVVTINKKRNLVVSVDDGGTFEVVLHRVWKGSSVHQDFLGFYVLDSHRMSARTHGLLGQFFHPIGFEVSDIHPGSDPTKPDATMVVRNRRLTVTRGLQKDYSKDPWHGAEVSCWFIHNNGAGLIDGAYTDYIVPDIF | 26.48 ± 0.18 | 26 ± 0.27 | 5.89 ± 0.64 | 6.12 ± 0.16 | – |
| MRLPGVPLARPALLLLLPLLAPLLGTGAPAELRVRVRLPDGQVTEESLQADSDADSISLELRKPDGTLVSFTADFKKDVKVFRALILGELEKGQSQFQALCFVTQLQHNEIIPSEAMAKLRQKNPRAVRQAEEVRGLEHLHMDVAVNFSQGALLSPHLHNVCAEAVDAIYTRQEDVRFWLEQGVDSSVFEALPKASEQAELPRCRQVGDHGKPCVCRYGLSLAWYPCMLKYCHSRDRPTPYKCGIRSCQKSYSFDFYVPQRQLCLWDEDPYPG [Q86UD1] | 26.92 ± 0.26 | 29.75 ± 0.17 | 4.6 ± 0.4 | 14.9 ± 2 | – |
| MAPRGCIVAVFAIFCISRLLCSHGAPVAPMTPYLMLCQPHKRCGDKFYDPLQHCCYDDAVVPLARTQTCGNCTFRVCFEQCCPWTFMVKLINQNCDSARTSDDRLCRSVS [Q6UW32] | – | – | – | – | percentage of EdU-negative (MCF7; [4]): 24.2 ± 1.9%; percentage of EdU-negative (MCF7; [5]): 25.5 ± 0.59%; percentage of EdU-negative (hTERT-HMEC; [4]): 4.73 ± 0.98%; percentage of EdU-negative (hTERT-HMEC; [5]): 5.65 ± 1.1% |
| MKFQGPLACLLLALCLGSGEAGPLQSGEESTGTNIGEALGHGLGDALSEGVGKAIGKEAGGAAGSKVSEALGQGTREAVGTGVRQVPGFGVADALGNRVGEAAHALGNTGHEIGRQAEDVIRHGADAVRGSWQGVPGHNGAWETSGGHGIFGSQGGLGGQGQGNPGGLGTPWVHGYPGNSAGSFGMNPQGAPWGQGGNGGPPNFGTNTQGAVAQPGYGSVRASNQNEGCTNPPPSGSGGGSSNSGGGSGSQSGSSGSGSNGDNNNGSSSGGSSSGSSSGGSSGGSSGGSSGNSGGSRGDSGSESSWGSSTGSSSGNHGGSGGGNGHKPGCEKPGNEARGSGESGIQNSETSPGMFNFDTFWKNFKSKLGFINWDAINKNQVPPPSTRALLYFSRLWEDFKQNTPFLNWKAIIEGADASSLQKRAGRDDQNYNYNQHAYPTAYGGKYSVKTPAKGGVSPSSSASRVQPGLLQWVKFW [Q6E0U4] | – | – | – | – | percentage of EdU-negative (MCF7; [6]): 27.8 ± 1.4%; percentage of EdU-negative (MCF7; protein concentration 0.095 µM): 27.7 ± 1.7%; percentage of EdU-negative (hTERT-HMEC; [6]): 4.68 ± 0.29%; percentage of EdU-negative (hTERT-HMEC; protein concentration 0.095 µM): 24.6 ± 4.2% |
